In the supplement of paper PMC9732359:
± gives the uncertainty stated by the source.

Assay: protein stability index of a GFP-peptide fusion (yeast GPS) (PSI 1-4); higher = more stable; sorted into four equal gates, so the index is relative within each strain
Procedure, shortened: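 Mid-log yeast cultures in leucine-free medium, carrying a pooled plasmid library, were sorted into four equal gates by their GFP/Cherry fluorescence ratio. Each plasmid expressed Cherry along with GFP fused upstream of a tiled 17-residue yeast protein peptide. Plasmids recovered from each gate were PCR-amplified and Illumina-sequenced, with reads assigned to strains by barcodes. The protein stability index was obtained by summing each gate's read frequency weighted by its gate number.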

Sequence | protein stability index (doa10∆) | protein stability index (pdr5∆) | protein stability index (san1∆) | protein stability index (ubr1∆)
AVAGLTADAEILINTAR [PRE9] | 2.98 ± 0.11 | 3.02 ± 0.088 | 3.07 ± 0.1 | 3.09 ± 0.078
SPAGKYKRQKSSLLYTY [ESC2] | 1.24 ± 0.056 | 1.39 ± 0.067 | 1.17 ± 0.11 | 1.16 ± 0.06
IYAKYGAKGSTLIVVPF [FAS2] | 2.4 ± 0.072 | 2.72 ± 0.073 | 2.34 ± 0.11 | 2.13 ± 0.05
PSTDKNEKKTETNAKPF [YLR335W/NUP2] | 3.32 ± 0.11 | 3.28 ± 0.094 | 3.34 ± 0.044 | 3.33 ± 0.096
FDGFLFGSRVMIAKEVK [FAS1] | 2.58 ± 0.15 | 1.56 ± 0.18 | – | 2.55 ± 0.074
AMSETLSKVSLLTPDIG [PRE8] | 3.08 ± 0.11 | 3.19 ± 0.12 | 3.04 ± 0.13 | 3.35 ± 0.23
EGNTVLEKGNNPSVKQG [SWP82] | 3.11 ± 0.067 | 3.12 ± 0.082 | 3.26 ± 0.065 | 2.87 ± 0.064
RKGGPATAEKLPNIYPS [RPT2] | 2.89 ± 0.13 | 3.54 ± 0.25 | 2.81 ± 0.13 | –
QLKIQNRQAAASVVPSA [RPL12A] | 1.82 ± 0.035 | 2.48 ± 0.042 | 2.05 ± 0.051 | 2.08 ± 0.03
EKNDQNNDDDDNSVEQG [MCD1] | – | 3.15 ± 0.22 | – | –
AAGALFVSSGFDTSIKL [RPN14] | 2.41 ± 0.052 | 2.52 ± 0.045 | 2.18 ± 0.064 | 2.49 ± 0.035
VKIMRDPAKSRTGPKAL [RPS3] | 3.35 ± 0.21 | 3.33 ± 0.12 | 3.06 ± 0.1 | 3.52 ± 0.11
TSGKVELPKKLLNLPPF [SRB8] | 2.57 ± 0.27 | 3.1 ± 0.25 | 2.67 ± 0.26 | 2.55 ± 0.14
STSENKISEGSAKPTFS [YOR098C/NUP1] | 3.63 ± 0.18 | 2.52 ± 0.26 | 2.8 ± 0.14 | 3.17 ± 0.097
LRLTDVTNSLSNEEKEK [GAL11] | 3.14 ± 0.12 | 3.17 ± 0.12 | 2.52 ± 0.15 | 3.3 ± 0.12
KMFQDIRLSKILEDDFA [CDC53] | 2.94 ± 0.062 | 3.04 ± 0.088 | 2.62 ± 0.072 | 2.93 ± 0.063
QFGNACISLSGVPNYLV [SSN2] | 1.59 ± 0.077 | 2.05 ± 0.093 | 2.37 ± 0.21 | 2.21 ± 0.069
EVYDFTHAVGNNCEDFV [FAS1] | 3.15 ± 0.12 | 3 ± 0.18 | 2.99 ± 0.071 | 3.05 ± 0.086
STRKTPNGEGSKTWETY [RPS20] | 3.19 ± 0.17 | 3.36 ± 0.16 | 3.07 ± 0.11 | 3.34 ± 0.082
RLNTVTRVHQLMLEDAV [MCD1] | 3.32 ± 0.21 | 1.62 ± 0.06 | 1.69 ± 0.21 | 2.32 ± 0.095
QAIPKFQMNCYAKEDAF [RPN2] | 1.84 ± 0.061 | 2.23 ± 0.044 | 2.17 ± 0.067 | 2.57 ± 0.036
IPPPMPKNQQYRAFGSI [MED7] | 2.04 ± 0.083 | 2.31 ± 0.093 | 2.42 ± 0.1 | 2.04 ± 0.071
ILTIIEEYKKSLYAYCH [GRR1] | 2.38 ± 0.28 | 1.33 ± 0.21 | 2.27 ± 0.26 | 3.38 ± 0.24
SFLGEAKSMAFLKEVLS [YML103C/NUP188] | – | – | 2.48 ± 0.18 | 2.54 ± 0.21
RLASEPGIISITSLQDS [YMR129W/POM152] | 2.94 ± 0.1 | 2.34 ± 0.077 | 2.96 ± 0.083 | 1.82 ± 0.051

Sequence | protein stability index (doa10∆) | protein stability index (pdr5∆) | protein stability index (san1∆) | protein stability index (ubr1∆)
LQLNEAEEFVAGVSHGT [SMX3] | 3.36 ± 0.25 | 2.96 ± 0.23 | 3.01 ± 0.28 | 3.41 ± 0.11
AILRQQQQMANNNGNPG [GAL11] | 2.77 ± 0.12 | 3.19 ± 0.13 | 2.7 ± 0.12 | 3.17 ± 0.05
YREAPVIYRGPEPSHID [RET1] | 2.83 ± 0.22 | 3.07 ± 0.23 | 3.21 ± 0.16 | 3.36 ± 0.16
AKSNEDKQDGTAKPAFS [YJL041W/NSP1] | 3.03 ± 0.23 | 3.44 ± 0.13 | 3.29 ± 0.17 | 2.96 ± 0.29
EEITCALDYLIPPPMPK [MED7] | 1.86 ± 0.083 | 2.73 ± 0.21 | 2.06 ± 0.16 | 2.28 ± 0.071
YTSIVQCCEFMTMLTPN [YML103C/NUP188] | 2.13 ± 0.051 | 2.03 ± 0.05 | 1.95 ± 0.062 | 2 ± 0.044
HDNHGNKLGNKRLTEDE [CDC53] | 2.51 ± 0.091 | 2.84 ± 0.069 | 2.37 ± 0.052 | 3.17 ± 0.06
QFIKSNFEKILLTCYEL [SRB8] | – | 3 ± 0.23 | – | –
QLIGSNIELHSLYTSRE [PUP1] | 3.33 ± 0.25 | 3.33 ± 0.2 | 3.34 ± 0.26 | 2.91 ± 0.2
HDISRYVRAKFLDYTTD [PRP8] | 2.23 ± 0.066 | 1.99 ± 0.088 | 1.83 ± 0.12 | 2.54 ± 0.089
SSTLGIDLEDIKEELTK [PCI8] | 2.93 ± 0.091 | 3.1 ± 0.094 | 3.17 ± 0.1 | 3.02 ± 0.1
IFAGAFVFQTVFDTAIT [QCR9] | 1.61 ± 0.048 | 1.35 ± 0.033 | 1.48 ± 0.076 | 1.67 ± 0.04
KKSKLISLYLLNLLSQN [RPN12] | 1.31 ± 0.057 | 1.97 ± 0.062 | 1.26 ± 0.094 | 1.84 ± 0.046
QQQQQFRHHVQIQQQQQ [SNF5] | 1.3 ± 0.033 | 1.76 ± 0.036 | 1.45 ± 0.086 | 1.32 ± 0.025
RNNVANKQPRNESFNRR [YAR002W/NUP60] | 3.04 ± 0.088 | 3.41 ± 0.18 | 2.31 ± 0.12 | 3.24 ± 0.14
NKDMIKNLVKVLESRVN [CSN12] | 2.32 ± 0.23 | 2.63 ± 0.15 | 1.58 ± 0.18 | 1.75 ± 0.15
RVNNPNVSLIKIEGVAT [RPL33A] | 2.54 ± 0.077 | 2.62 ± 0.062 | 2.38 ± 0.077 | 2.49 ± 0.048
RKRKCGHTNQLRPKKKL [RPL40A] | 2.84 ± 0.035 | 2.95 ± 0.032 | 3.017 ± 0.024 | 3.033 ± 0.026
MVTSNVVLVSGEGERFT [SKP1] | 2.11 ± 0.14 | 2.56 ± 0.086 | 2.26 ± 0.12 | 1.73 ± 0.081
GARPGRVARRNAARKAE [RPS9A] | 3.3 ± 0.13 | 3.45 ± 0.17 | – | 3 ± 0.098
CIIFMDEVDAIGGRRFS [RPT4] | 2.38 ± 0.089 | 2.13 ± 0.075 | 2.88 ± 0.1 | 2.43 ± 0.099
EENSQGNILDFNLNLPP [REC8] | 3.06 ± 0.11 | 3.5 ± 0.14 | 3.18 ± 0.051 | 3.01 ± 0.079
LESGKETALEFLEKEKQ [SMC4] | 3.62 ± 0.12 | 3.46 ± 0.11 | 3.17 ± 0.071 | 3.48 ± 0.079
VVDHHVENELLQVDVDI [RRP42] | 3.4 ± 0.13 | 3.25 ± 0.21 | 2.83 ± 0.17 | –
FVRQAAMIALSMILIQQ [RPN2] | 1.35 ± 0.083 | 1.75 ± 0.17 | 1.48 ± 0.19 | 1.82 ± 0.14

Sequence | protein stability index (doa10∆) | protein stability index (pdr5∆) | protein stability index (san1∆) | protein stability index (ubr1∆)
DDEHNPTIVGGLYYQRP [AAR2] | 2.66 ± 0.053 | 2.56 ± 0.039 | 2.62 ± 0.036 | 2.96 ± 0.04
FYAAVQKNYADPEKDSI [SIN4] | 2.11 ± 0.083 | 2.58 ± 0.074 | 2.01 ± 0.093 | 1.59 ± 0.046
HFKKPDITVHGEQIIVH [RRP45] | 1.43 ± 0.14 | 1.37 ± 0.23 | – | 1.4 ± 0.13
HEVEEILNELQPNARAL [SMC1] | 3.09 ± 0.13 | 3.4 ± 0.12 | 3.1 ± 0.099 | 3.44 ± 0.069
IKKFAKLHMGTEDVRLA [RPL31B] | 3.21 ± 0.21 | 3.21 ± 0.22 | 2.71 ± 0.15 | 2.73 ± 0.14
ITDKGTVDGRLYQLFKT [YJL039C/NUP192] | 3.19 ± 0.11 | 3.46 ± 0.097 | 3.3 ± 0.069 | 3.46 ± 0.094
NIEEMARVILYLKNVLF [SIN4] | 2.23 ± 0.075 | 2.31 ± 0.079 | 2.01 ± 0.11 | 2.05 ± 0.037
TVPNLPTTMVTNQKDTN [ISW2] | 1.29 ± 0.046 | 1.84 ± 0.053 | 1.51 ± 0.1 | 1.75 ± 0.051
MKHLGRSEGNPVIGVFQ [FAS2] | – | 2.78 ± 0.08 | 2.9 ± 0.094 | 3.01 ± 0.093
VVDPKTSIEKSSEILSY [YML103C/NUP188] | 1.49 ± 0.087 | 1.43 ± 0.13 | 1.16 ± 0.12 | 1.12 ± 0.063
NNNNNNNNSNNIMSASG [YGL172W/NUP49] | 2.73 ± 0.059 | 2.48 ± 0.038 | 2.67 ± 0.077 | 3.1 ± 0.059
FSEEKAEEFDFNVPVVS [YAR002W/NUP60] | 2.48 ± 0.18 | 1.34 ± 0.16 | 1.3 ± 0.13 | 1.15 ± 0.12
IGLIALSATGTRSAKKM [YJR042W/NUP85] | – | – | 3 ± 0.15 | –
FHSEPDRDENWIHVSCL [LIN1] | 3.16 ± 0.075 | 3.27 ± 0.054 | 3.07 ± 0.045 | 3.13 ± 0.039
DALEMQWRYLYDTQLKV [ARP7] | 1.75 ± 0.053 | 1.55 ± 0.046 | 1.41 ± 0.088 | 1.53 ± 0.05
LSLDSDVKFPSNTTTQI [SMC3] | 2.9 ± 0.25 | 3.37 ± 0.14 | 2.81 ± 0.15 | 3.32 ± 0.18
RRADVKTATVKINKKLN [RPL38] | 1.83 ± 0.058 | 1.84 ± 0.041 | 2.17 ± 0.086 | 1.62 ± 0.039
KKEYIELDILNKGWKLQ [SRB4] | 2.29 ± 0.13 | 3.38 ± 0.17 | 2.76 ± 0.089 | 2.94 ± 0.16
STSKFESQYPIVTEQPS [SWP82] | 2.41 ± 0.041 | 2.58 ± 0.046 | 2.41 ± 0.054 | 2.5 ± 0.04
DEDIITIFKYLTDKDAF [CDC53] | 2.91 ± 0.14 | 3.15 ± 0.11 | 3.21 ± 0.061 | 3.19 ± 0.059
LPKIIQLQGPQWMNEMV [SOH1] | 3.15 ± 0.088 | 3.29 ± 0.064 | 3.14 ± 0.066 | 3.06 ± 0.07
AGETLILDGLTVRLVNL [SRB2] | 2.43 ± 0.071 | 2.97 ± 0.082 | 2.46 ± 0.073 | 2.66 ± 0.052
IRAELLNDRKVLFAAYK [RPB11] | 2.18 ± 0.081 | 2.19 ± 0.063 | 2.45 ± 0.098 | 2.23 ± 0.061
PLSESLRLVDDDENNPS [RRP6] | 3.15 ± 0.11 | 3.12 ± 0.096 | 2.98 ± 0.084 | 3.08 ± 0.084
GLTLSTTNLDIDLLTFQ [RPP1] | 2.94 ± 0.067 | 3.04 ± 0.06 | 3.16 ± 0.056 | 2.86 ± 0.05
